Assays:
[1] = Molecular weight and coupling product components (DAR) by LC-MS; conditions: coupling product without HIC purification, protein 4.1 mg/mL
Text: In this example, liquid chromatography-mass spectrometry (LC-MS) was used to analyze the protein sample for molecular weight. Those skilled in the art can use different models of liquid chromatography (LC) and mass spectrometer (MS) to establish similar analytical methods according to the technical instructions and through experimental exploration. Only representative methods are listed in this example.
In certain specific embodiments, determination of the molecular weight of a protein sample required desaccharification on the sample to remove modifications such as saccharide chains, for example, the sample was processed with glycosidase PNGase F (NEB, #P0705L) at 37° C. for at least 4 h. For example, in all examples of the present invention, when the molecular weight of protein samples was determined, unless otherwise emphasized, the protein samples to be tested were subjected to desaccharification by the glycosidase PNGase F.
In certain specific embodiments, determination of the reduced molecular weight of a protein sample required reduction on the sample, for example, the sample was processed with […] dithiothreitol (DTT) at 37° C. for 10 min. For example, in all examples of the present invention, the samples after reduction were called reduced samples, and the samples without reduction were called non-reduced samples.
Buffer A was 0.1% formic acid FA dissolved in water, and buffer B was 0.1% formic acid FA dissolved in acetonitrile. Injection: about 1 μg; flow rate: 0.3 mL/min; and operation temperature: 80° C. When reduced samples were tested, buffer A and buffer B were mixed within 12 min to form a linear gradient: using 10-60% B for the first 8 min and 80% B for the last 4 min. When non-reduced samples were tested, buffer A and buffer B were mixed within 9 min to form a linear gradient: using 15-60% B for the first 6 min and 80% B for the last 3 min.
Buffer A was 0.1% formic acid FA dissolved in water, and buffer B was 0.1% formic acid FA dissolved in acetonitrile. Injection: about 10 μL; flow rate: 0.2-0.5 mL/min; and operation temperature: 80° C. […]

[2] = molecular target: T1, CHOK1-hCD47 cells highly expressing human CD47 (Homo sapiens, UniProt Q08722); assay: FACS binding to cells highly expressing CD47; conditions: flow cytometry FACS
T1 construct: host or cells: CHOK1-hCD47 (CHO-K1)
T1 sequence (Q08722 19-323): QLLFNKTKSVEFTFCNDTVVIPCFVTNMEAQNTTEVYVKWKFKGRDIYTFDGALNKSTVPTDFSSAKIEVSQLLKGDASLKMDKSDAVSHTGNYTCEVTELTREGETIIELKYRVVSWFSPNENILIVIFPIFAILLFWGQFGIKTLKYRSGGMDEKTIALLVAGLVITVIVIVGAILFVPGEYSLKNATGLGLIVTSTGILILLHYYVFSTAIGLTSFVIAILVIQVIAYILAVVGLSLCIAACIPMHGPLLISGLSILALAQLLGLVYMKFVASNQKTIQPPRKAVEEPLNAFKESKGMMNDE
Experimental: The binding ability of the antigen-binding protein to CHOK1-hCD47 cells (GenScript, M00581) highly expressing human CD47 was determined by flow cytometry FACS. Specifically, the cells were digested and resuspended in a DMEM complete medium, and the cell density was adjusted to 1×10^6 cells/mL. The cells were seeded in a 96-well V-bottom plate (Corning, #3894) at 100 µL/well, followed by the addition of test binding proteins diluted in a 3-fold gradient at a concentration that was 2 times the final concentration, each at 100 μL/well. The cells were incubated at 4° C. for 1 h away from light. Thereafter, the cells in each well were rinsed twice with 100 μL of pre-cooled PBS, and centrifuged at 500 g at 4° C. for 5 min, and then the supernatant was discarded. Thereafter, a fluorescent secondary antibody (Alexa Fluor 488-conjugated AffiniPure Goat Anti-Human IgG, Fcγ Fragment Specific, Jackson ImmunoResearch Inc., #109-545-098, diluted in a 1:500 ratio) was added at 100 μL/well, and the plate was incubated at 4° C. for 30 min away from light. The cells in each well were then rinsed twice with 100 μL of pre-cooled PBS and centrifuged at 500 g at 4° C. for 5 min, and then the supernatant was discarded. […] Fluorescence signal values were read using a BD FACS CANTOII flow cytometer, and the data were processed and analyzed using FlowJo v10 (FlowJo, LLC) software.

NCI-H929 cells [3] = assay: Cytotoxic killing experiment (Example 9.5), NCI-H929; conditions: 72 h, CellTiter-Glo; proteins up to 10 nM, mc-vc-PAB-MMAE up to 20 nM
Experimental: (§1) The HEK293T-hBCMA, NCI-H929, HEK293T and SNU-16 cells were seeded in 96-well plates (Perkin Elmer, #6005225) respectively, with the following seeded cell number: 2500 cells/50 μL/well (HEK293T-hBCMA), 5000 cells/50 μL/well (NCI-H929), 2500 cells/50 μL/well (HEK293T), and 5000 cells/50 μL/well (SNU-16). Then, the plates were incubated overnight at 37° C. with 5% CO2. Then, a test sample serially pre-diluted was added at 50 μL/well. PR004433, PR004433-ADC and PR004432-ADC were diluted at a 3-fold concentration gradient from the highest final concentration of 10 nM, and mc-vc-PAB-MMAE was diluted at a 3-fold concentration gradient from the highest final concentration of 20 nM. In addition, a well without the test sample was set as a control well. Thereafter, the plates were incubated at 37° C. with 5% CO2 for 72 h, a CellTiter-Glo cell viability detection reagent (Promega, #G7573) was added, then the plates were incubated at room temperature for at least 10 min to obtain stable luminescence signals, and the luminescence values were detected using a microplate reader. The cell viability was calculated based on the luminescence values by the following formula: […]
The data were processed and analyzed by plotting using GraphPad Prism 8 software, and binding curves of the antibodies to target cells, EC50 values and other parameters were obtained through four-parameter nonlinear fitting. […]

HCC1954 cells = assay: Cytotoxic killing experiment (Example 8.5), HCC1954; conditions: 72 h, CellTiter-Glo; proteins up to 30 nM, mc-vc-PAB-MMAE up to 60 nM
Experimental: This example was to study the cell killing activity of the anti-5T4 antibody coupling product PR004432-ADC against a human breast cancer cell strain HCC1954 (ATCC, CRL-2338) highly expressing human 5T4.
The HCC1954 cells were seeded in a 96-well plate (Perkin Elmer, #6005225) at 4000 cells/50 μL/well and incubated overnight at 37° C. with 5% CO2. Then, a test sample serially pre-diluted was added at 50 μL/well. PR004432, PR004432-ADC and PR004433-ADC were diluted at a 3-fold concentration gradient from the highest final concentration of 30 nM, and mc-vc-PAB-MMAE was diluted at a 3-fold concentration gradient from the highest final concentration of 60 nM. In addition, a well without the test sample was set as a control well. Thereafter, the plates were incubated at 37° C. with 5% CO2 for 72 h, a CellTiter-Glo cell viability detection reagent (Promega, #G7573) was added, then the plates were incubated at room temperature for at least 10 min to obtain stable luminescence signals, and the luminescence values were detected using a microplate reader. The cell viability was calculated based on the luminescence values by the following formula:
Cell viability (%)=(A/B)×100% […]
(§2) The data were processed and analyzed by plotting using GraphPad Prism 8 software, and binding curves of the antibodies to target cells, EC50 values and other parameters were obtained through four-parameter nonlinear fitting.

NCI-H929 cells [4] = assay: Cytotoxic killing experiment (Example 7.5), NCI-H929; assay type: cell-based, human; conditions: 72 h, CellTiter-Glo; PR001046-ADC at 0.1 μg/mL and above; PR001046 0.01-1 μg/mL; mc-vc-PAB-MMAE 0.1-10 nM
Text: The data were processed and analyzed by plotting using a GraphPad Prism 8 software. In this example, multiple groups of different PR001046-ADC samples were used, including samples containing different percentages of DAR=2 (D2) components before or after purification.

HEK293T-hBCMA cells = assay: Cytotoxic killing experiment (Example 9.5), HEK293T-hBCMA; conditions: 72 h, CellTiter-Glo; proteins up to 10 nM, mc-vc-PAB-MMAE up to 20 nM
Experimental: as §1, §2

Substance | Average DAR ([1]; Experiment 1, TCEP 1.5 equivalents) | Average DAR ([1]; Experiment 2, TCEP 2.0 equivalents) | Average DAR ([1]; Experiment 3, TCEP 3.0 equivalents) | binding activity to CD47 (CHOK1-hCD47 cells) [2] | cytotoxic killing against NCI-H929 cells (NCI-H929 cells [3]) | cytotoxic killing against HCC1954 cells (HCC1954 cells) | cell killing of BCMA-positive cells NCI-H929 (NCI-H929 cells [4]) | cytotoxic killing against HEK293T-hBCMA cells (HEK293T-hBCMA cells)
PR006345: SIRPa-Fc fusion protein: ALX148 SIRPa variant fused with human IgG1 hinge and Fc, SEQ ID NO: 149 | 1.89 | 2.23 | 2.91 | strong specific binding activity | – | – | – | –
mc-vc-PAB-MMAE [reference compound] | – | – | – | – | cannot produce effective killing | only has a killing effect at the highest concentration (60 nM) | cannot effectively kill | cannot produce effective killing

— US20240050583A1, “PROTEIN-DRUG CONJUGATE AND SITE-SPECIFIC CONJUGATING METHOD” (HARBOUR BIOMED (SHANGHAI) CO., LTD, priority 2020, published 2024)
